In patent USRE43568:

Key:
[1] = molecular target: human complement C3 (from human pooled serum) (human) (UniProt P01024); test: C3 ELISA, antibody coated, human pooled serum added
[2] = molecular target: Fcγ receptors on monocytes (FcγRI and RII) (human); test: FACS on human monocytes, antibody 10 µg/ml
[3] = molecular target: Fcγ receptors on granulocytes (FcγRII and RIII) (human); test: FACS on human granulocytes, antibody 10 µg/ml

Bmax (OD405 at 10 µg/ml) [1] [OD405]	% monocytes binding antibody [2] [%]	% granulocytes binding antibody [3] [%]	Substance
0.104	14.5	1.6	HuMab 002 Fc variant IgG4v1 (S228P; L235E) (antibody)
–	9.4	–	human IgG4 (CLB, the Netherlands), negative control (antibody)
0.133	–	–	HuMab 002 Fc variant IgG1v2 (L234A; L235A) (antibody)
